Target: T1, FITC-casein
T1 sequence (P02666 16-224, species assumed, looked up): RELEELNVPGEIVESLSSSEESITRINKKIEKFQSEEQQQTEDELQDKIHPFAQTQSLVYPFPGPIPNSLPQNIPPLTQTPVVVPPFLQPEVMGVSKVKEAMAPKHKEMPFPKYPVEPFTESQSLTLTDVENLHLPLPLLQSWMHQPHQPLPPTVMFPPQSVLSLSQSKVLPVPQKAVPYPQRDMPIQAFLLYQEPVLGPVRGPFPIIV
Assay: fluorescence polarisation

Sequence of Hsp104 (P31539 whole entry): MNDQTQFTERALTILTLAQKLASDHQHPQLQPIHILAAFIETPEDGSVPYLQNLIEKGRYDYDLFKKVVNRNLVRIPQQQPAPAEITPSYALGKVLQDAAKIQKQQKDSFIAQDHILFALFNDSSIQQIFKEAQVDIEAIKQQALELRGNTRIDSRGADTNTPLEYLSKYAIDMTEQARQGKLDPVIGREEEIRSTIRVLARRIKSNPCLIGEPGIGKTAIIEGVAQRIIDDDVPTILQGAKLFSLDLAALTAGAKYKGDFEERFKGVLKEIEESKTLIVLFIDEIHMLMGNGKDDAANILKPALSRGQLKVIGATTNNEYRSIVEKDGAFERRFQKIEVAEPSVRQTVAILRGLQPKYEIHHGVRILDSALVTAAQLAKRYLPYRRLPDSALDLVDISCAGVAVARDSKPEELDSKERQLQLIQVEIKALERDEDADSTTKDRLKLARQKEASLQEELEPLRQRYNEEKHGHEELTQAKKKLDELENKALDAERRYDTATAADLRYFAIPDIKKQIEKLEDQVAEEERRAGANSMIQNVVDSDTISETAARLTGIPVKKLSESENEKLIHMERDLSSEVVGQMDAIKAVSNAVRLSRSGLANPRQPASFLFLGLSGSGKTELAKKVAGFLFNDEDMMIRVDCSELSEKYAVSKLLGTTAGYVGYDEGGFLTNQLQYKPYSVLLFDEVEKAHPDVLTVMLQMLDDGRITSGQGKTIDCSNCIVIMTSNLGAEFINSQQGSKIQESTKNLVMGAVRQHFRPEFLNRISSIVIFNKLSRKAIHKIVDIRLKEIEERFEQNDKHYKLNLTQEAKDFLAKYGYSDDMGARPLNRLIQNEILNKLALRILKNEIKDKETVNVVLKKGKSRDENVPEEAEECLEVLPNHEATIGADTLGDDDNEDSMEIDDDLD
Sequence of Ydj1 (P25491 whole entry): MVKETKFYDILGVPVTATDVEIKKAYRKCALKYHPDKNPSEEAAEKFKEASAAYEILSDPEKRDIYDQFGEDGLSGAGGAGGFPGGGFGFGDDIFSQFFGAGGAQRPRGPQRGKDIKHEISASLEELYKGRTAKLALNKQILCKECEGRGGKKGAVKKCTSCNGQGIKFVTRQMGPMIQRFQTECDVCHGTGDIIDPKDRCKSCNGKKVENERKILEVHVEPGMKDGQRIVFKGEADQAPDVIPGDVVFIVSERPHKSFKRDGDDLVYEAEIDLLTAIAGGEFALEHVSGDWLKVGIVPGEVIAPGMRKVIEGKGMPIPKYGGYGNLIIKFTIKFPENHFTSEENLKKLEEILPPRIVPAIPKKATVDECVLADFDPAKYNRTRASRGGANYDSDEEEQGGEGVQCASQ

Substance	Kd	IC50
Hsp104 (from UniProt P31539 1-908) (natural protein)	0.2 µM	–
Ydj1 (from UniProt P25491 1-409) (natural protein)	–	20 to 40 µM
